First the molecules themselves.
T1: DDE
T1 chain 1: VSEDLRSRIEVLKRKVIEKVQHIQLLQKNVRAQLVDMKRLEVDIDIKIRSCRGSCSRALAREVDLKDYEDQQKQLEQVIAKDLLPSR
T1 chain 2: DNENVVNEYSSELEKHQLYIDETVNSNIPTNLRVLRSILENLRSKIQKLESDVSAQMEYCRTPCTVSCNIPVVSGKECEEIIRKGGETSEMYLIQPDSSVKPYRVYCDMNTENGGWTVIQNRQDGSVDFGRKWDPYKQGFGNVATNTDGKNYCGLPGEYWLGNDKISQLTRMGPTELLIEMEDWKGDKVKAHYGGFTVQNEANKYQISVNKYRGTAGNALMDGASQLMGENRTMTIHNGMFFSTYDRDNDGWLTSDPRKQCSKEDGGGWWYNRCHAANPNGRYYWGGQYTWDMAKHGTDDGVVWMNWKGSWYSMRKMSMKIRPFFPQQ
T1 chain 3: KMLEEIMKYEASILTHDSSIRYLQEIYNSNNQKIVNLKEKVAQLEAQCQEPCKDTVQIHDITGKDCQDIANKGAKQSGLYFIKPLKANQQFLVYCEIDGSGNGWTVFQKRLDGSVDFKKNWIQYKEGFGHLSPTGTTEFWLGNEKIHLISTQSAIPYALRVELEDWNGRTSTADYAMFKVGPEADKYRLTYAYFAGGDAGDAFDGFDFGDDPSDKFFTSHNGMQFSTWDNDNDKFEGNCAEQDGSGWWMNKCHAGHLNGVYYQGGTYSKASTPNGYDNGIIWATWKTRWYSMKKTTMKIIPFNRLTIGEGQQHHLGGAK
T1 chain 4: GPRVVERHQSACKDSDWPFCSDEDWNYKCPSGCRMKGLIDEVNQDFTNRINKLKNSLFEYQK
T1 chain 5: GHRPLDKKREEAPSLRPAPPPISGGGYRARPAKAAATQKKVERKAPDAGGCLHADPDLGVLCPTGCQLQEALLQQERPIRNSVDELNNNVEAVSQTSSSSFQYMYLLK
T1 chain 6: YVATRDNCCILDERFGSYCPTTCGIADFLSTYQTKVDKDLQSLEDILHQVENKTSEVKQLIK

B1: Seq038-CF5 (peptide)
peptide: H-GWQPCPAESWTFCWDPGGGK(5FAM)-NH2
modifications: disulfide 5-13
SMILES: C[C@@H]1NC(=O)[C@@H]2CCCN2C(=O)[C@@H](NC(=O)[C@@H]2CCCN2C(=O)[C@H](CCC(N)=O)NC(=O)[C@H](Cc2c[nH]c3ccccc23)NC(=O)CN)CSSC[C@@H](C(=O)N[C@@H](Cc2c[nH]c3ccccc23)C(=O)N[C@@H](CC(=O)O)C(=O)N2CCC[C@H]2C(=O)NCC(=O)NCC(=O)NCC(=O)N[C@@H](CCCCNC(=O)c2ccc3c(c2)C(=O)OC32c3ccc(O)cc3Oc3cc(O)ccc32)C(N)=O)NC(=O)[C@H](Cc2ccccc2)NC(=O)[C@H]([C@@H](C)O)NC(=O)[C@H](Cc2c[nH]c3ccccc23)NC(=O)[C@H](CO)NC(=O)[C@H](CCC(=O)O)NC1=O
B2: Seq056-CF5 (peptide)
peptide: RWQPCPAESWTFCWDPGGGK(5FAM)-NH2
modifications: disulfide 5-13; N-terminus assumed
SMILES: C[C@@H]1NC(=O)[C@@H]2CCCN2C(=O)[C@@H](NC(=O)[C@@H]2CCCN2C(=O)[C@H](CCC(N)=O)NC(=O)[C@H](Cc2c[nH]c3ccccc23)NC(=O)[C@@H](N)CCCNC(=N)N)CSSC[C@@H](C(=O)N[C@@H](Cc2c[nH]c3ccccc23)C(=O)N[C@@H](CC(=O)O)C(=O)N2CCC[C@H]2C(=O)NCC(=O)NCC(=O)NCC(=O)N[C@@H](CCCCNC(=O)c2ccc3c(c2)C(=O)OC32c3ccc(O)cc3Oc3cc(O)ccc32)C(N)=O)NC(=O)[C@H](Cc2ccccc2)NC(=O)[C@H]([C@@H](C)O)NC(=O)[C@H](Cc2c[nH]c3ccccc23)NC(=O)[C@H](CO)NC(=O)[C@H](CCC(=O)O)NC1=O
B3: Seq039-CF5 (peptide)
peptide: Ac-GWQPCPAESWTFCWDPGGGK(5FAM)-NH2
modifications: disulfide 5-13
SMILES: CC(=O)NCC(=O)N[C@@H](Cc1c[nH]c2ccccc12)C(=O)N[C@@H](CCC(N)=O)C(=O)N1CCC[C@H]1C(=O)N[C@H]1CSSC[C@@H](C(=O)N[C@@H](Cc2c[nH]c3ccccc23)C(=O)N[C@@H](CC(=O)O)C(=O)N2CCC[C@H]2C(=O)NCC(=O)NCC(=O)NCC(=O)N[C@@H](CCCCNC(=O)c2ccc3c(c2)C(=O)OC32c3ccc(O)cc3Oc3cc(O)ccc32)C(N)=O)NC(=O)[C@H](Cc2ccccc2)NC(=O)[C@H]([C@@H](C)O)NC(=O)[C@H](Cc2c[nH]c3ccccc23)NC(=O)[C@H](CO)NC(=O)[C@H](CCC(=O)O)NC(=O)[C@H](C)NC(=O)[C@@H]2CCCN2C1=O
B4: Seq048-CF5 (peptide)
peptide: Ac-RWQPCPWESWTFCWDPGGGK(5FAM)-NH2
modifications: disulfide 5-13
SMILES: CC(=O)N[C@@H](CCCNC(=N)N)C(=O)N[C@@H](Cc1c[nH]c2ccccc12)C(=O)N[C@@H](CCC(N)=O)C(=O)N1CCC[C@H]1C(=O)N[C@H]1CSSC[C@@H](C(=O)N[C@@H](Cc2c[nH]c3ccccc23)C(=O)N[C@@H](CC(=O)O)C(=O)N2CCC[C@H]2C(=O)NCC(=O)NCC(=O)NCC(=O)N[C@@H](CCCCNC(=O)c2ccc3c(c2)C(=O)OC32c3ccc(O)cc3Oc3cc(O)ccc32)C(N)=O)NC(=O)[C@H](Cc2ccccc2)NC(=O)[C@H]([C@@H](C)O)NC(=O)[C@H](Cc2c[nH]c3ccccc23)NC(=O)[C@H](CO)NC(=O)[C@H](CCC(=O)O)NC(=O)[C@H](Cc2c[nH]c3ccccc23)NC(=O)[C@@H]2CCCN2C1=O
B5: Seq023-CF5 (peptide)
peptide: H-RWQPCPWESWTFCWDPGGGK(5FAM)-NH2
modifications: disulfide 5-13
SMILES: C[C@@H](O)[C@@H]1NC(=O)[C@H](Cc2c[nH]c3ccccc23)NC(=O)[C@H](CO)NC(=O)[C@H](CCC(=O)O)NC(=O)[C@H](Cc2c[nH]c3ccccc23)NC(=O)[C@@H]2CCCN2C(=O)[C@@H](NC(=O)[C@@H]2CCCN2C(=O)[C@H](CCC(N)=O)NC(=O)[C@H](Cc2c[nH]c3ccccc23)NC(=O)[C@@H](N)CCCNC(=N)N)CSSC[C@@H](C(=O)N[C@@H](Cc2c[nH]c3ccccc23)C(=O)N[C@@H](CC(=O)O)C(=O)N2CCC[C@H]2C(=O)NCC(=O)NCC(=O)NCC(=O)N[C@@H](CCCCNC(=O)c2ccc3c(c2)C(=O)OC32c3ccc(O)cc3Oc3cc(O)ccc32)C(N)=O)NC(=O)[C@H](Cc2ccccc2)NC1=O
B6: Seq022-CF5 (peptide)
peptide: H-RGWQPCPWESWTFCWDPGGGK(5FAM)-NH2
modifications: disulfide 6-14
SMILES: C[C@@H](O)[C@@H]1NC(=O)[C@H](Cc2c[nH]c3ccccc23)NC(=O)[C@H](CO)NC(=O)[C@H](CCC(=O)O)NC(=O)[C@H](Cc2c[nH]c3ccccc23)NC(=O)[C@@H]2CCCN2C(=O)[C@@H](NC(=O)[C@@H]2CCCN2C(=O)[C@H](CCC(N)=O)NC(=O)[C@H](Cc2c[nH]c3ccccc23)NC(=O)CNC(=O)[C@@H](N)CCCNC(=N)N)CSSC[C@@H](C(=O)N[C@@H](Cc2c[nH]c3ccccc23)C(=O)N[C@@H](CC(=O)O)C(=O)N2CCC[C@H]2C(=O)NCC(=O)NCC(=O)NCC(=O)N[C@@H](CCCCNC(=O)c2ccc3c(c2)C(=O)OC32c3ccc(O)cc3Oc3cc(O)ccc32)C(N)=O)NC(=O)[C@H](Cc2ccccc2)NC1=O
B7: Seq000-CF5 (peptide)
peptide: Ac-WQPCPWESWTFCWDPGGGK(CF5)-NH2
modifications: disulfide 4-12
notes: also called standard 5CF-labeled peptide

Bridge positions count the residues as written; N and C are the ends. Square brackets hold non-standard residues; d marks the D form. Ends that are not written are not given here. * marks the point of attachment. αGalNAc = CC(=O)N[C@@H]1[C@@H](O)[C@@H](O)[C@@H](CO)O[C@@H]1*; 5FAM = O=C1OC2(c3ccc(O)cc3Oc3cc(O)ccc32)c2ccc(C(=O)*)cc21; Phe(3,4-F2) = N[C@@H](Cc1ccc(F)c(F)c1)C(=O)O; Thf2ca = tetrahydrofuran-2-carboxylic acid; Phe(4-F) = N[C@@H](Cc1ccc(F)cc1)C(=O)O; Cha = N[C@@H](CC1CCCCC1)C(=O)O; CF5 = 5-carboxyfluorescein

One test has as its target DDE. The test can be described thus: direct binding fluorescence polarization: CF5-labeled peptide titrated with DDE; n = 2. In general terms: In fluorescence polarisation assays a small probe gives low polarisation when free and higher when bound to something large.
The term Kd denotes the free concentration of one partner at which half of the binding sites on the other are occupied at equilibrium, for simple one-to-one binding. Read a low Kd as a tighter complex. In turn, Ac-WQPCPWESWT[Phe(4-F)]CWDPGGGK(CF5)-NH2 (disulfide 4-12) [Seq019-CF5] gave a dissociation constant (Kd) of 1020 nM. The same measure, in the same setting: under Ac-RWQPCPAESWT[Cha]CWDPGGGK(CF5)-NH2 (disulfide 5-13) [Seq050-CF5] stands 80 nM; under Ac-RWQPCPAESWTFCWDPGGGK(5FAM)-NH2 (disulfide 5-13; not fully specified) [Seq049-CF5], 210 nM. The molecule Ac-S(αGalNAc)WQPCPWESWTFCWDPGGGK(CF5)-NH2 (disulfide 5-13) [Seq027-CF5] gave a dissociation constant Kd of 500 nM. On to RGWQPCPAESWT[Cha]CWDPGGGK(CF5)-NH2 (disulfide 6-14) [Seq054-CF5], for which the Kd was 50 nM. For the molecule Ac-RGWQPCPAESWT[Cha]CWDPGGGK(CF5)-NH2 (disulfide 6-14) [Seq053-CF5], the Kd is 100 nM.

With Ac-GWQPCPAESWT[Cha]CWDPGGGK(CF5)-NH2 (disulfide 5-13) [Seq055-CF5], the Kd came out at 80 nM. This Kd and that of the molecule before are within 1.5-fold of each other. In the case of B1, the dissociation constant (Kd) came out at 240 nM. On the same count and under the same terms, under B2 stands 60 nM; under GWQPCPAESWT[Cha]CWDPGGGK(CF5)-NH2 (disulfide 5-13) [Seq051-CF5], 60 nM; under RWQPCPAESWT[Cha]CWDPGGGK(CF5)-NH2 (disulfide 5-13) [Seq057-CF5], 30 nM. Consider B3, for which the Kd is 240 nM. Ac-RGWQPCPWESWTFCWDPGGGK(5FAM)-NH2 (disulfide 6-14; not fully specified) [Seq052-CF5] displayed a Kd of 530 nM. This Kd lies about 2.2-fold higher than the previous one. Molecule Ac-WQPCPWESWT[Cha]CWDPGGGK(CF5)-NH2 (disulfide 4-12) [Seq018-CF5] had an equilibrium dissociation constant (Kd) of 200 nM.

For the molecule Ac-WQPCPWESWT[Phe(3,4-F2)]CWDPGGGK(CF5)-NH2 (disulfide 4-12) [Seq020-CF5], the dissociation constant (Kd) worked out at 700 nM. The molecule Thf2ca-WQPCPWESWTFCWDPGGGK(CF5)-NH2 (disulfide 4-12) [Seq028-CF5] displayed a dissociation constant Kd of 1210 nM. With B4, the Kd was determined as 110 nM. This Kd is about 11-fold lower than that of the molecule before. Still for that read-out and setting: in the case of B5 it was 110 nM; in that of B6, 280 nM.

For a further test, the target named is T1, DDE. The test is described as above.
For the molecule Ac-GWQPCPWESWTFCWDPGGGK(CF5)-NH2 (disulfide 5-13) [Seq016-CF5], the Kd stood at 230 nM. Still for that read-out and setting: under Ac-GGRGWQPCPWESWTFCWDPGGGK(CF5)-NH2 (disulfide 8-16) [Seq015-CF5] stands 290 nM; under B7, 390 nM. The molecule Ac-GPPGWQPCPWESWTFCWDPGGGK(CF5)-NH2 (disulfide 8-16) [Seq014-CF5] registered a dissociation constant Kd of 250 nM.
